# Results: US20140087995A1 (published 2014)
# Read-outs that look alike come from different tables or passages of the source. Numbered stars: 1 amine (or outer) side, 2 acyl side, 3 side chain; on linkers, the order of the positions; unused ones are H or OH. Bridge positions count the residues as written; N and C are the ends. Side chains are listed from the residue outwards. Ends that are not written are not given here. * marks the point of attachment. C20 diacid = O=C(O)CCCCCCCCCCCCCCCCCCC(=O)*; γGlu = O=C(O)[C@H](CCC(=O)[*:2])N[*:1]; AEEA = NCCOCCOCC(=O)O
# T1: human calcitonin receptor (human, UniProt P30988 25-474)
# T1 sequence (looked up): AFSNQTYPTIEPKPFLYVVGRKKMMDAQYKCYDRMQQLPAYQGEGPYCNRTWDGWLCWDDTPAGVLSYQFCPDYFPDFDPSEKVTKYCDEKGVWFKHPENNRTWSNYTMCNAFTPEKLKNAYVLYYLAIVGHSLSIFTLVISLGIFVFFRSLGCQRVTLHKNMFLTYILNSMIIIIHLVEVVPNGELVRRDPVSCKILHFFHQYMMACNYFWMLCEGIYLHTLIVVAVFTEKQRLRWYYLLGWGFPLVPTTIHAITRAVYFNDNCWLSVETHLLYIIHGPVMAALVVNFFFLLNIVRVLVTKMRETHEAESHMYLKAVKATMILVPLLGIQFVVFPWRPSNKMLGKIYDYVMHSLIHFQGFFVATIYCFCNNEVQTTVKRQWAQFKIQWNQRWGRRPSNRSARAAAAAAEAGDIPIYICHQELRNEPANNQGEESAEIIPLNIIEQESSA
# T2: human amylin receptor (amylin 3(a) receptor: human calcitonin receptor plus RAMP-3) (human, UniProt P30988 25-474; O60896 24-148, limits assumed)
# T2 sequence (looked up) 1: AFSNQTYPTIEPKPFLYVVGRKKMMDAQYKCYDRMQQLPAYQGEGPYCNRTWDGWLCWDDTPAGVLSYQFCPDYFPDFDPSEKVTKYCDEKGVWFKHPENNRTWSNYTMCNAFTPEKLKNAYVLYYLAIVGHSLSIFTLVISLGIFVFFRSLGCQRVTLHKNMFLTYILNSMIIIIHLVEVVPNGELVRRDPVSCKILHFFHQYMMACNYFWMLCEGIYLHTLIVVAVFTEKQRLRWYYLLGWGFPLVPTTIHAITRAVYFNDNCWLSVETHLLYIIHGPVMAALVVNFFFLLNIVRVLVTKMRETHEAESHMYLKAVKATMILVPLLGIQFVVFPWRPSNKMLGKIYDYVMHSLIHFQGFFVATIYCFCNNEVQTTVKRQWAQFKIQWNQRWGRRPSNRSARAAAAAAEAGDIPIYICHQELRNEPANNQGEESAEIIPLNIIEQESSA
# T2 sequence (looked up) 2: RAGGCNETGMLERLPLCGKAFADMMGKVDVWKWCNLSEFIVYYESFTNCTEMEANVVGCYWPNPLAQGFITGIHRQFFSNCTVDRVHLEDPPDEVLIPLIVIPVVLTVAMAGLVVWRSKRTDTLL
# T3: human calcitonin receptor (human, UniProt P30988 25-474)
# T3 sequence (looked up): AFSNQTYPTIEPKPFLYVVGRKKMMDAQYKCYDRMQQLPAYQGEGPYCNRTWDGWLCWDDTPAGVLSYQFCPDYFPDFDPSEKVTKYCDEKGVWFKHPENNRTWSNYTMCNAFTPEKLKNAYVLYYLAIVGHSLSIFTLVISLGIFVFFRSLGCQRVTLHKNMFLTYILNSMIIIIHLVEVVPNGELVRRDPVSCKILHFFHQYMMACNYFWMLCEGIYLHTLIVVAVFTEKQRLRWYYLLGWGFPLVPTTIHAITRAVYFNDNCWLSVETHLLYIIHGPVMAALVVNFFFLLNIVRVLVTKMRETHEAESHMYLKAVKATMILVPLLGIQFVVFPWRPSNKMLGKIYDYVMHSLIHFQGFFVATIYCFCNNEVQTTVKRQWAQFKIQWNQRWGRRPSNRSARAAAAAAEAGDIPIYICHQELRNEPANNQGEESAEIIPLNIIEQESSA
# How the values were obtained:
# Experiment in all cases: cell-based or functional assay
# [1] = biological target: T1, human calcitonin receptor
# [2] = biological target: T2, human amylin receptor (amylin 3(a) …)
# [3] = biological target: T3, human calcitonin receptor; remark: listed apart in the source
Binder,hCTR funct. EC50 [1] [nM],Ratio hCT/hAmylin funct. [2] [ratio],hAmylin-R funct. EC50 [2] [nM],hCTR funct. EC50 [3] [nM]
"K([AEEA-γGlu-C20 diacid])RCNTATCATQRLANFLRHSSPNFGAIPSSTNVGSHTY-NH2 (disulfide 3-8; N-terminus assumed; SMILES CC[C@H](C)[C@H](NC(=O)[C@H](C)NC(=O)CNC(=O)[C@H](Cc1ccccc1)NC(=O)[C@H](CC(N)=O)NC(=O)[C@@H]1CCCN1C(=O)[C@H](CO)NC(=O)[C@H](CO)NC(=O)[C@H](Cc1c[nH]cn1)NC(=O)[C@H](CCCNC(=N)N)NC(=O)[C@H](CC(C)C)NC(=O)[C@H](Cc1ccccc1)NC(=O)[C@H](CC(N)=O)NC(=O)[C@H](C)NC(=O)[C@H](CC(C)C)NC(=O)[C@H](CCCNC(=N)N)NC(=O)[C@H](CCC(N)=O)NC(=O)[C@@H](NC(=O)[C@H](C)NC(=O)[C@@H]1CSSC[C@H](NC(=O)[C@H](CCCNC(=N)N)NC(=O)[C@@H](N)CCCCNC(=O)COCCOCCNC(=O)CC[C@H](NC(=O)CCCCCCCCCCCCCCCCCCC(=O)O)C(=O)O)C(=O)N[C@@H](CC(N)=O)C(=O)N[C@@H]([C@@H](C)O)C(=O)N[C@@H](C)C(=O)N[C@@H]([C@@H](C)O)C(=O)N1)[C@@H](C)O)C(=O)N1CCC[C@H]1C(=O)N[C@@H](CO)C(=O)N[C@@H](CO)C(=O)N[C@H](C(=O)N[C@@H](CC(N)=O)C(=O)N[C@H](C(=O)NCC(=O)N[C@@H](CO)C(=O)N[C@@H](Cc1c[nH]cn1)C(=O)N[C@H](C(=O)N[C@@H](Cc1ccc(O)cc1)C(N)=O)[C@@H](C)O)C(C)C)[C@@H](C)O, h-amylin derivative, N-terminally extended by one residue; disulfide bridge and C-terminal amide as told for human amylin; also called compound 45)",10.1,–,–,–
"KCNTATCATQRLANFLRHSSPNFGAIPSSTNVGSNTY (C20 diacid-gGlu-2xOEG on the alpha amino group of the N-terminal residue; disulfide bridge Cys2-Cys7; C-terminal amide, Synthetic acylated analogue of human amylin; also called compound 24)",–,23.1,0.433,10
"{C20 diacid-γGlu}-KCNTATCATQRLANFLRHSSPNFGAIPSSTPVGSETY-NH2 (disulfide 2-7; SMILES CC[C@H](C)[C@H](NC(=O)[C@H](C)NC(=O)CNC(=O)[C@H](Cc1ccccc1)NC(=O)[C@H](CC(N)=O)NC(=O)[C@@H]1CCCN1C(=O)[C@H](CO)NC(=O)[C@H](CO)NC(=O)[C@H](Cc1c[nH]cn1)NC(=O)[C@H](CCCNC(=N)N)NC(=O)[C@H](CC(C)C)NC(=O)[C@H](Cc1ccccc1)NC(=O)[C@H](CC(N)=O)NC(=O)[C@H](C)NC(=O)[C@H](CC(C)C)NC(=O)[C@H](CCCNC(=N)N)NC(=O)[C@H](CCC(N)=O)NC(=O)[C@@H](NC(=O)[C@H](C)NC(=O)[C@@H]1CSSC[C@H](NC(=O)[C@H](CCCCN)NC(=O)CC[C@H](NC(=O)CCCCCCCCCCCCCCCCCCC(=O)O)C(=O)O)C(=O)N[C@@H](CC(N)=O)C(=O)N[C@@H]([C@@H](C)O)C(=O)N[C@@H](C)C(=O)N[C@@H]([C@@H](C)O)C(=O)N1)[C@@H](C)O)C(=O)N1CCC[C@H]1C(=O)N[C@@H](CO)C(=O)N[C@@H](CO)C(=O)N[C@H](C(=O)N1CCC[C@H]1C(=O)N[C@H](C(=O)NCC(=O)N[C@@H](CO)C(=O)N[C@@H](CCC(=O)O)C(=O)N[C@H](C(=O)N[C@@H](Cc1ccc(O)cc1)C(N)=O)[C@@H](C)O)C(C)C)[C@@H](C)O, Synthetic acylated analogue of human amylin; also called compound 28)",–,9.2,0.22,2.03
"KCNTATCATQRLANFLRHSSPNFGAIPSSTNVGRNTY (C20 diacid-gGlu on the alpha amino group of the N-terminal residue; disulfide bridge Cys2-Cys7; C-terminal amide, Synthetic acylated analogue of human amylin; also called compound 39) [N^α1-[(4S)-4-carboxy-4-(19-carboxynonadecanoylamino)butanoyl]-[Arg17,Pro21,Pro27,Arg34]-h-amylin]",–,11.6,0.217,2.52
"K([γGlu-γGlu-C20 diacid])CNTATCATQRLADFLRHSSPNFGAIPSSTNVGSRTY-NH2 (disulfide 2-7; N-terminus assumed; SMILES CC[C@H](C)[C@H](NC(=O)[C@H](C)NC(=O)CNC(=O)[C@H](Cc1ccccc1)NC(=O)[C@H](CC(N)=O)NC(=O)[C@@H]1CCCN1C(=O)[C@H](CO)NC(=O)[C@H](CO)NC(=O)[C@H](Cc1c[nH]cn1)NC(=O)[C@H](CCCNC(=N)N)NC(=O)[C@H](CC(C)C)NC(=O)[C@H](Cc1ccccc1)NC(=O)[C@H](CC(=O)O)NC(=O)[C@H](C)NC(=O)[C@H](CC(C)C)NC(=O)[C@H](CCCNC(=N)N)NC(=O)[C@H](CCC(N)=O)NC(=O)[C@@H](NC(=O)[C@H](C)NC(=O)[C@@H]1CSSC[C@H](NC(=O)[C@@H](N)CCCCNC(=O)CC[C@H](NC(=O)CC[C@H](NC(=O)CCCCCCCCCCCCCCCCCCC(=O)O)C(=O)O)C(=O)O)C(=O)N[C@@H](CC(N)=O)C(=O)N[C@@H]([C@@H](C)O)C(=O)N[C@@H](C)C(=O)N[C@@H]([C@@H](C)O)C(=O)N1)[C@@H](C)O)C(=O)N1CCC[C@H]1C(=O)N[C@@H](CO)C(=O)N[C@@H](CO)C(=O)N[C@H](C(=O)N[C@@H](CC(N)=O)C(=O)N[C@H](C(=O)NCC(=O)N[C@@H](CO)C(=O)N[C@@H](CCCNC(=N)N)C(=O)N[C@H](C(=O)N[C@@H](Cc1ccc(O)cc1)C(N)=O)[C@@H](C)O)C(C)C)[C@@H](C)O, Synthetic acylated analogue of human amylin; also called compound 52)",–,–,–,14.1
